± gives the uncertainty stated by the source.
B1: library; the commonest letter at each place (parent)
chain: MKPVTLYDVAEYAGVSYQTVSRVVNQASHVSAKTREKVEAAMAELNYIPNRVAQQLAGKQSLLIGVATSSLALHAPSQIVAAIKSRADQLGASVVVSMVERSGVEACKAAVHNLLAQRVSGLIINYPLDDQDAIAVEAACTNVPALFLDVSDQTPINSIIFSHEDGTRLGVEHLVALGHQQIALLAGPLSSVSARLRLAGWHKYLTRNQIQPIAEREGDWSAMSGFQQTMQMLNEGIVPTAMLVANDQMALGAMRAITESGLRVGADISVVGYDDTEDSSCYIPPLTTIKQDFRLLGQTSVDRLLQLSQGQAVKGNQLLPVSLVKRKTTLAPNTQTASPRALADSLMQLARQVSRLESGQ

How the values were obtained:
Conditions in all cases: with IPTG
[1] = variants of: B1
Experimental: (§1)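 LacI variants on the pVER plasmid regulate eYFP behind lacO in E. coli MG1655Δlac, grown in rich M9 at 37 °C with a 2-fold IPTG dilution series. After two 160-min growth steps, YFP is read by flow cytometry and calibrated to MEF. Bayesian MCMC fits of the Hill equation give G0, G∞, EC50 and n (posterior mean ± SD).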

[2] = variants of: B1; assay: Hill coefficient n (dimensionless); higher = steeper dose response
Experimental: as §1

[3] = variants of: B1; assay: basal output G0 (YFP, no IPTG) (log10 MEF); higher = higher reporter expression without inducer
Experimental: as §1

[4] = variants of: B1; assay: saturating output G-infinity (YFP) (log10 MEF); higher = higher reporter expression at saturating IPTG
Experimental: as §1

Variant | EC50 for IPTG (log10 µmol/L) [1] | Hill coefficient n [2] | basal output G0 (log10) [3] | saturating output G-infinity (log10) [4]
S70R A87P V301M E357G | 3.59 ± 0.015 | 1.66 ± 0.081 | 4.5727 ± 0.004 | 3.672 ± 0.019
V80L I83M S97T | 1.986 ± 0.0056 | 1.55 ± 0.025 | 1.99 ± 0.077 | 3.8535 ± 0.0021
S70R V136E | 1.841 ± 0.017 | 1.69 ± 0.085 | 4.55 ± 0.0061 | 3.806 ± 0.01
S69T S97T | 1.37 ± 0.019 | 1.55 ± 0.059 | 2.65 ± 0.11 | 4.496 ± 0.0072
S70R V150A S190T F226L | 0.971 ± 0.021 | 1.48 ± 0.089 | 3.37 ± 0.035 | 4.221 ± 0.0049
G121V G261V | 1.847 ± 0.017 | 1.58 ± 0.052 | 2.58 ± 0.083 | 4.418 ± 0.0075
V94M S190C G200A Q209R R263H Q317L | 1.44 ± 0.025 | 1.4 ± 0.072 | 3.418 ± 0.023 | 4.454 ± 0.0086
V80L S97T | 1.611 ± 0.0061 | 1.57 ± 0.031 | 2.33 ± 0.069 | 4.0264 ± 0.0022
S70R S97T F161V | 1.71 ± 0.068 | 1.16 ± 0.12 | 3.29 ± 0.059 | 4.429 ± 0.023
S70R N208Y | 1.444 ± 0.0064 | 1.46 ± 0.026 | 2.66 ± 0.045 | 4.2522 ± 0.0022
L56M | 1.05 ± 0.033 | 1.39 ± 0.12 | 3.976 ± 0.018 | 4.548 ± 0.0075
S70R Q181H | 1.49 ± 0.03 | 1.46 ± 0.12 | 2.55 ± 0.62 | 4.269 ± 0.011
S93N V99E S102R L198Q S260F A337S | 0.634 ± 0.024 | 1.31 ± 0.088 | 3.834 ± 0.012 | 4.443 ± 0.0046
S70R S97T | 1.16 ± 0.037 | 1.37 ± 0.1 | 3.15 ± 0.062 | 4.362 ± 0.012
A72V K84N I210F M254T T336S | 0.962 ± 0.049 | 0.934 ± 0.078 | 4.369 ± 0.0082 | 4.067 ± 0.0058
A109E D165V G166A R255C E259G | 0.842 ± 0.018 | 1.33 ± 0.06 | 3.421 ± 0.019 | 4.417 ± 0.0048
L90Q L198M E235D T336S | 1.88 ± 0.022 | 1.61 ± 0.073 | 2.51 ± 0.2 | 4.423 ± 0.0091
S70R F161V | 2.02 ± 0.013 | 1.29 ± 0.039 | 3.01 ± 0.037 | 4.3852 ± 0.0042
V80L A87P V301M E357G | 1.57 ± 0.045 | 1.15 ± 0.079 | 4.52 ± 0.015 | 3.493 ± 0.02
G103D H202Y P284T | 1.5 ± 0.016 | 1.64 ± 0.075 | 2.85 ± 0.11 | 4.458 ± 0.0062
V95M A337T | 2.109 ± 0.018 | 1.59 ± 0.082 | 2.13 ± 0.64 | 4.23 ± 0.0081

Variant | EC50 for IPTG (log10 µmol/L) [1] | Hill coefficient n [2] | basal output G0 (log10) [3] | saturating output G-infinity (log10) [4]
V301M | 1.82 ± 0.049 | 1.53 ± 0.16 | 2.32 ± 0.83 | 4.469 ± 0.021
S70R I83F | 1.24 ± 0.028 | 1.36 ± 0.079 | 3.18 ± 0.04 | 4.347 ± 0.0092
S70R V271M | 1.521 ± 0.012 | 1.46 ± 0.044 | 2.7 ± 0.066 | 4.268 ± 0.0045
I160N R263S L305Q | 2.561 ± 0.022 | 1.61 ± 0.054 | 1.14 ± 0.59 | 4.285 ± 0.012
Q55H D130E V192A T258I D267N Y273H N333I | 2.889 ± 0.028 | 1.39 ± 0.097 | 4.402 ± 0.0063 | 3.681 ± 0.016
K203N D278V S280L I283V | 1.8 ± 0.022 | 1.73 ± 0.085 | 3.192 ± 0.021 | 4.401 ± 0.009
V80L I83M | 2.444 ± 0.013 | 1.37 ± 0.045 | 0.521 ± 0.46 | 3.718 ± 0.0043
V80L L169P | 2.47 ± 0.026 | 1.2 ± 0.077 | 1.86 ± 0.58 | 3.696 ± 0.0083
A194V | 3.35 ± 0.048 | 1.61 ± 0.06 | 2.01 ± 0.08 | 4.322 ± 0.041
V94L V99I V104I L307F | 1.47 ± 0.02 | 1.56 ± 0.1 | 2.75 ± 0.26 | 4.204 ± 0.0067
V24L V52M A72T A214V I268V K325Q P332H A337V | 1.467 ± 0.0061 | 1.59 ± 0.03 | 2.62 ± 0.054 | 4.2255 ± 0.002
I83F G200C | 1.913 ± 0.0091 | 1.48 ± 0.032 | 3.03 ± 0.023 | 4.4658 ± 0.0031
S97T V136E | 1.37 ± 0.038 | 1.42 ± 0.12 | 3.05 ± 0.078 | 4.331 ± 0.013
Y273H D278G Q335L E357G | 3.07 ± 0.09 | 1.62 ± 0.14 | 2.16 ± 0.11 | 4.07 ± 0.075
V136E L169P | 4.914 ± 0.028 | 2.33 ± 0.32 | 4.5429 ± 0.0026 | 1.85 ± 1.1
F161V | 2.58 ± 0.015 | 1.59 ± 0.044 | 1.98 ± 0.34 | 4.455 ± 0.0069
F161S | 1.12 ± 0.017 | 1.43 ± 0.047 | 3.04 ± 0.036 | 4.464 ± 0.0055
F161L | 3.161 ± 0.0097 | 1.32 ± 0.022 | 1.83 ± 0.42 | 4.38 ± 0.0037
S70R Q231R | 1.509 ± 0.0064 | 1.47 ± 0.025 | 2.67 ± 0.037 | 4.251 ± 0.0022
I83M S97T | 2.18 ± 0.046 | 1.52 ± 0.16 | 1.25 ± 0.81 | 4.399 ± 0.017
L169P | 2.678 ± 0.026 | 1.34 ± 0.061 | 2.72 ± 0.067 | 4.3 ± 0.0095

Variant | EC50 for IPTG (log10 µmol/L) [1] | Hill coefficient n [2] | basal output G0 (log10) [3] | saturating output G-infinity (log10) [4]
I83M V136E | 1.48 ± 0.029 | 1.21 ± 0.075 | 4.519 ± 0.0083 | 3.789 ± 0.011
N113D D132N T154R M242I V313A K314N R340S | 2.033 ± 0.011 | 1.64 ± 0.048 | 1.59 ± 0.65 | 4.226 ± 0.0048
V9I R255C E259D T336I R355Q | 1.05 ± 0.014 | 1.38 ± 0.044 | 3.374 ± 0.028 | 4.5116 ± 0.0042
S190C | 2.091 ± 0.0053 | 1.65 ± 0.019 | 2.31 ± 0.049 | 4.4474 ± 0.0025
I160F L185F | 3.06 ± 0.056 | 1.77 ± 0.11 | 2.08 ± 0.16 | 4.19 ± 0.048
A82V | 1.93 ± 0.025 | 1.51 ± 0.075 | 1.71 ± 0.7 | 4.252 ± 0.01
A82G | 2.576 ± 0.011 | 1.3 ± 0.021 | 2.51 ± 0.036 | 4.414 ± 0.0045
V99E A116T T141I S190C | 0.86 ± 0.015 | 1.33 ± 0.047 | 3.534 ± 0.013 | 4.454 ± 0.0039
S97T | 1.59 ± 0.023 | 1.58 ± 0.067 | 2.61 ± 0.16 | 4.572 ± 0.01
M42I | 2.437 ± 0.015 | 1.43 ± 0.046 | 0.821 ± 0.6 | 4.148 ± 0.0056
V80L V96E T154I S158R V238D M254I V264I | 1.68 ± 0.055 | 1.16 ± 0.085 | 4.207 ± 0.016 | 3.07 ± 0.031
V80L S279T | 1.566 ± 0.0048 | 1.56 ± 0.023 | 2.07 ± 0.088 | 3.9365 ± 0.0017
S70R S190C | 1.547 ± 0.0043 | 1.47 ± 0.017 | 2.64 ± 0.029 | 4.2816 ± 0.0016
V96E T154I S158R V238D M254I V264I | 2.37 ± 0.029 | 1.37 ± 0.067 | 4.479 ± 0.01 | 3.19 ± 0.03
A27T A87T S102G N316I L330P Q352R | 1.04 ± 0.011 | 1.44 ± 0.038 | 3.624 ± 0.013 | 4.5229 ± 0.003
E39D N208D A222V | 1.37 ± 0.022 | 1.55 ± 0.079 | 3.1 ± 0.043 | 4.484 ± 0.0081
I64V V95M Q131R T141A D152E N208I A222T L295M K327N | 0.469 ± 0.011 | 1.55 ± 0.075 | 3.589 ± 0.011 | 4.4894 ± 0.0031
G91D V94A R101G S158C T167M E172D A176S F226Y T276S T299A | 2.31 ± 0.027 | 1.25 ± 0.063 | 4.329 ± 0.0062 | 3.63 ± 0.0095
S69T S279T | 1.28 ± 0.013 | 1.56 ± 0.053 | 2.7 ± 0.11 | 4.428 ± 0.0047
Q317L | 2.051 ± 0.0097 | 1.66 ± 0.041 | 2.08 ± 0.5 | 4.4477 ± 0.0044
N125D | 2.739 ± 0.019 | 1.27 ± 0.038 | 2.73 ± 0.035 | 4.445 ± 0.0072
